Laboratory results taken from the supplement of paper PMC7125110.
± gives the standard error. For some assays here: Fewer inactive variants are shown than the library holds.

B1: glmS ribozyme (parent)
chain: AUAAAAGCGCCAGAACUACAGAAAUGUAGUUGACGAGGAGGAGGUUUAUCGAAUUUUCGGCGGAUGCCUCCAAA

Key:
Conditions in all cases: with glucosamine-6-phosphate
glucosamine-6-phosphate [1] = variants of: B1; test: kcat; higher = faster cleavage; RNA array
In short: (§1)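 E. coli RNA polymerase transcribed barcoded ribozyme variants in situ on sequenced MiSeq chips, which were tracked via a hybridised Cy3 probe at 37 °C. Tiles were imaged over ~14 h after glucosamine-6-phosphate (40 μM to 10 mM) in HEPES/KCl/Mg(OAc)2 buffer was flowed in. Normalised per-tile medians were fit to one- or two-exponential decays for kobs, and kcat and KM came from weighted Michaelis–Menten fits.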

glucosamine-6-phosphate [2] = variants of: B1; test: KM; higher = weaker cofactor use; RNA array
In short: as §1

glucosamine-6-phosphate [3] = variants of: B1; test: self-cleavage kobs at 640 uM GlcN6P; higher = faster cleavage; RNA array
In short: as §1

glucosamine-6-phosphate [4] = variants of: B1; test: self-cleavage kobs at 2500 uM GlcN6P; higher = faster cleavage; RNA array
In short: as §1

glucosamine-6-phosphate [5] = variants of: B1; test: self-cleavage kobs at 10000 uM GlcN6P; higher = faster cleavage; RNA array
In short: as §1

glucosamine-6-phosphate [6] = variants of: B1; test: self-cleavage kobs at 40 uM GlcN6P; higher = faster cleavage; RNA array
In short: as §1

glucosamine-6-phosphate [7] = variants of: B1; test: self-cleavage kobs at 160 uM GlcN6P; higher = faster cleavage; RNA array
In short: as §1

| Variant | kcat (glucosamine-6-phosphate [1]) [s⁻¹] | KM (glucosamine-6-phosphate [2]) [µM] | self-cleavage kobs at 640 uM GlcN6P (glucosamine-6-phosphate [3]) [s⁻¹] | self-cleavage kobs at 2500 uM GlcN6P (glucosamine-6-phosphate [4]) [s⁻¹] | self-cleavage kobs at 10000 uM GlcN6P (glucosamine-6-phosphate [5]) [s⁻¹] | self-cleavage kobs at 40 uM GlcN6P (glucosamine-6-phosphate [6]) [s⁻¹] | self-cleavage kobs at 160 uM GlcN6P (glucosamine-6-phosphate [7]) [s⁻¹] |
| --- | --- | --- | --- | --- | --- | --- | --- |
| C16U U46A U54G C70A | 0.000156 ± 2.4e-05 | 743 ± 300 | 6.86e-05 ± 2.2e-05 | 0.000143 ± 3.9e-05 | 0.000124 ± 5e-05 |  |  |
| U31G A64G | 0.0127 ± 0.0021 | 1620 ± 370 | 0.00368 ± 0.00071 | 0.00704 ± 0.0013 | 0.0116 ± 0.0017 | 0.000372 ± 5.2e-05 | 0.000974 ± 0.00016 |
| C50G U69C | 0.000107 ± 2.1e-05 |  | 9.95e-05 ± 1.7e-05 | 0.000193 ± 3.4e-05 | 9.16e-05 ± 1.9e-05 | 0.000118 ± 3.6e-05 | 9.81e-05 ± 2.6e-05 |
| U30G G41A | 0.000293 ± 2.6e-05 | 881 ± 160 | 0.000124 ± 2e-05 | 0.00025 ± 4.4e-05 | 0.000248 ± 4.4e-05 |  | 4.24e-05 ± 1.1e-05 |
| U56A C68G | 7.31e-05 ± 8.9e-06 |  | 0.00011 ± 1.5e-05 | 6.61e-05 ± 7.6e-06 | 6.94e-05 ± 7.3e-06 |  | 6.33e-05 ± 1.2e-05 |
| A12G A42G | 0.00162 ± 0.0003 | 4880 ± 1300 | 0.000189 ± 1.9e-05 | 0.00064 ± 7.7e-05 | 0.00103 ± 0.00012 |  | 3.49e-05 ± 1.3e-05 |
| A33U U55C | 0.000106 ± 1.2e-05 | 6170 ± 1300 |  | 3.12e-05 ± 5.7e-06 | 6.51e-05 ± 7.8e-06 | < 1e-05 |  |
| U31C C68U | 0.000617 ± 9.3e-05 | 1690 ± 450 | 0.000175 ± 1.2e-05 | 0.000321 ± 2.9e-05 | 0.000583 ± 4.8e-05 | 3.14e-05 ± 9.7e-06 | 5.34e-05 ± 8.6e-06 |
| C68G C71U | < 1e-05 |  |  |  |  |  |  |
| U30G A48U | 7.56e-05 ± 6e-06 | 1040 ± 340 |  | 5.84e-05 ± 1.2e-05 | 6.65e-05 ± 1.1e-05 | < 1e-05 | < 1e-05 |
| A48U C68U | 7.9e-05 ± 4.9e-06 | 435 ± 140 | 4.57e-05 ± 6.9e-06 | 7.48e-05 ± 7.7e-06 | 7.25e-05 ± 6.1e-06 |  |  |
| A6U A12C | 0.000271 ± 9.3e-05 |  |  | 0.000111 ± 3.2e-05 | 0.000168 ± 2.9e-05 |  |  |
| G32A U55A C68A | 3.25e-05 ± 3.5e-06 |  |  |  |  |  |  |
| G40A A42C | 2.78e-05 ± 3.3e-06 | 1680 ± 670 |  |  |  |  | < 1e-05 |
| C61A C71G | 1.3e-05 ± 2.8e-06 |  |  |  |  |  |  |
| A48G A52G | 1.36e-05 ± 9.9e-07 |  | < 1e-05 |  |  |  |  |
| C11U G41U | 9.92e-05 ± 3.5e-06 | 740 ± 130 | 4.38e-05 ± 1.5e-05 | 8.28e-05 ± 1.7e-05 | 9.12e-05 ± 1e-05 |  |  |
| G29C A52U | 5.44e-05 ± 2.8e-06 | 1790 ± 390 |  | 3.25e-05 ± 1.4e-05 | 4.6e-05 ± 1e-05 | < 1e-05 |  |

| Variant | kcat (glucosamine-6-phosphate [1]) [s⁻¹] | KM (glucosamine-6-phosphate [2]) [µM] | self-cleavage kobs at 640 uM GlcN6P (glucosamine-6-phosphate [3]) [s⁻¹] | self-cleavage kobs at 2500 uM GlcN6P (glucosamine-6-phosphate [4]) [s⁻¹] | self-cleavage kobs at 10000 uM GlcN6P (glucosamine-6-phosphate [5]) [s⁻¹] | self-cleavage kobs at 40 uM GlcN6P (glucosamine-6-phosphate [6]) [s⁻¹] | self-cleavage kobs at 160 uM GlcN6P (glucosamine-6-phosphate [7]) [s⁻¹] |
| --- | --- | --- | --- | --- | --- | --- | --- |
| A42U C67G | 0.000997 ± 0.00019 | 853 ± 310 | 0.000369 ± 4.9e-05 | 0.00082 ± 0.00012 | 0.000939 ± 8.5e-05 | 6.76e-05 ± 8.5e-06 | 0.000114 ± 2.5e-05 |
| G38U C58G | < 1e-05 |  |  |  |  |  |  |
| G60A C70A | 1.05e-05 ± 2.5e-06 |  |  |  |  | < 1e-05 |  |
| U30G U54G | 0.00551 ± 0.002 |  | 0.00144 ± 0.00032 | 0.00254 ± 0.00053 | 0.00743 ± 0.0011 | 0.000203 ± 4.6e-05 | 0.000615 ± 0.0001 |
| C10G C68G | 5.21e-05 ± 1.5e-05 |  | 4.42e-05 ± 1.8e-05 | 4.78e-05 ± 1.7e-05 |  |  |  |
| U56G G59U | 2.54e-05 ± 5.7e-06 |  |  | 2.9e-05 ± 1.4e-05 | 2.16e-05 ± 1e-05 |  | < 1e-05 |
| A12U C16G G40C | 0.000662 ± 7.1e-05 | 3490 ± 700 | 9.91e-05 ± 3.2e-05 | 0.000322 ± 0.00011 | 0.000481 ± 9.8e-05 |  |  |
| U30C G59A | < 1e-05 |  |  |  |  |  |  |
| G41U C68U | 5.17e-05 ± 8.8e-06 |  |  |  |  |  | < 1e-05 |
| A15C G29A | 0.0015 ± 0.00014 | 6270 ± 870 | 0.000137 ± 2.3e-05 | 0.000429 ± 9.7e-05 | 0.000924 ± 0.00012 |  |  |
| G9A G13C U30G G63U U69G | < 1e-05 |  |  | < 1e-05 |  | < 1e-05 |  |
| U31C A42U | 1.58e-05 ± 4.1e-06 |  |  |  |  | < 1e-05 | < 1e-05 |
| U31A C50G U65C C67U | 0.000126 ± 2.3e-05 |  | 0.000147 ± 4.9e-05 | 0.000191 ± 4.1e-05 | 0.000104 ± 1.9e-05 | 8.02e-05 ± 1.6e-05 | 0.000177 ± 5e-05 |
| A53C U69A | 0.000135 ± 1.3e-05 | 683 ± 200 | 6.52e-05 ± 1.2e-05 | 0.000124 ± 2.1e-05 | 0.000118 ± 1.8e-05 |  |  |
| C58G G63A | < 1e-05 |  |  |  |  | < 1e-05 |  |
| A42G G66U | 0.00257 ± 0.00027 | 1900 ± 310 | 0.000688 ± 8.4e-05 | 0.00166 ± 0.00027 | 0.0021 ± 0.00021 | 5.91e-05 ± 9e-06 | 0.000171 ± 2.6e-05 |
| C10U A33U | 4.38e-05 ± 4e-06 |  |  | 4.07e-05 ± 1.2e-05 | 3.99e-05 ± 6.2e-06 | < 1e-05 |  |
| A6U C67G | 1.15e-05 ± 1.2e-06 |  |  |  |  |  |  |
